From patent publication US20180265572A1 (Bristol-Myers Squibb, published 2018)
Several values for one entry are separate records, joined by “and”; a condition that tells them apart may be missing. Identical values can stand only once. One block for each binder: values may come before it.

How the values were obtained:
human IGF-IR on cells = human IGF-IR on cells (human, UniProt P08069 31-1367); assay: cell-based or functional assay
[1] = target: VEGFR2 fusion protein on Ba/F3 cells (extracellular domain of hVEGFR2 and intracellular domain of hEpoR) (human, UniProt P35968 20-764; P19235 274-508, limits assumed); assay: cell-based or functional assay
[2] = target: T1, VEGFR-2 (KDR) on transfected cells (UniProt P35968 20-1356, limits assumed); assay: competitive blocking assay on 293:KDR cells; competitor 200 nM IRDye 800CW-labelled Peg-V2Bshort
T1 construct: whole, on cells; also called Flk-1
Description: Similarly, the pegylated, his-tagged construct 385A08-Fn-V2B-cys was able to block the interaction of a mono-specific ¹⁰Fn3-based VEGFR-2 binder (Peg-V2Bshort, SEQ ID NO: 28) with VEGFR-2 present on 293:KDR cells. […] In particular, in a Ba/F3 assay (described below), the IC₅₀ for the monomeric, non-pegylated VEGFR2 binder V2Bshort (SEQ ID NO: 28) is approximately 0.1-3 nM whereas the IC₅₀ for the monomeric, non-pegylated VEGFR2 binder having SEQ ID NO: 44 (e.g., with an N-terminal extension) is approximately 8-13 nM. […] Both the R⁺ and 293:KDR cell based competitive blocking assays are described in detail in the materials and methods section below.
293:KDR (Sibtech, Brookfield, Conn.) were plated in 96 well plates at a concentration of 25,000 cells per well in DMEM (Invitrogen, Carlsbad, Calif.) containing 10% fetal bovine serum (Hyclone, Logan, Utah). The following day, cells were washed twice in serum free DMEM containing 0.1% BSA (Invitrogen, Carlsbad, Calif.). After the washes, the cells were incubated at 4° C. for 10 minutes in binding buffer (serum free DMEM+0.1% BSA) containing increasing concentrations of VEGFR-2 antagonists or controls. Typical controls included the mono-specific ¹⁰Fn3-based VEGFR2 binder (Peg-V2Bshort, SEQ ID NO: 28) (positive control) or the mono-specific ¹⁰Fn3-based IGF-IR binder (AT580-PEG40, SEQ ID NO: 27) (negative control). […]

human IGF-IR-Fc fusion [3] = target: T2, human IGF-IR-Fc fusion (human, UniProt P08069 31-932); assay: SPR (Biacore), captured IGF1R-Fc, midscale purified binder
T2 construct: range 1-932; If it counts on the precursor, it includes the signal peptide; also called IGF1R-Fc; not shown: hinge and constant regions of human IgG

human IGF-IR-Fc fusion [4] = target: T2, human IGF-IR-Fc fusion; assay: SPR (Biacore), IGF-IR-Fc captured on Protein A/G, HTPP purified binder in solution, n=1, KD approximate
VEGFR2-Fc (R&D Systems) [5] = target: T3, VEGFR2-Fc (R&D Systems) (UniProt P35968 20-764); assay: SPR (Biacore), immobilised VEGFR2-Fc, midscale material
T3 construct: Bought reagent; not shown: Fc part of the bought fusion; not described

human IGF-IR-Fc fusion [6] = target: T2, human IGF-IR-Fc fusion; assay: SPR (Biacore), captured IGF-IR-Fc, midscale material
VEGFR2-Fc (R&D Systems) [7] = target: T3, VEGFR2-Fc (R&D Systems); assay: SPR (Biacore), immobilized VEGFR2-Fc, midscale purified binder
human IGF-IR-Fc fusion [8] = target: T2, human IGF-IR-Fc fusion; assay: SPR (Biacore), IGF1R-Fc captured on Protein A
Description: (§1) Affinity data was also measured from midscale and large scale material, for the pegylated version of the tandem construct 385A08-Fn-V2B-cys (SEQ ID NO: 9, with and without his tag). The specific materials and methods for these calculations are described below.
(§2) An alternative method is to capture the IGF—IR-Fc on Protein A. This method was used for calculating the affinity and kinetics of certain versions of the construct 385A08-Fn-V2B-cys (both pegylated and non-pegylated and with or without his tag) from midscale and large scale materials. Specifically, IGF—IR-Fc was captured on Protein A immobilized on a Biacore CM5 sensor chip by amine coupling. VEGFR2-Fc was immobilized directly on a CM5 chip by amine coupling. The affinity and kinetic analysis involved the capture of IGF—IR-Fc on Protein A followed by injection of the tandem adnectin in solution over IGF—IR-Fc and VEGFR2-Fc. The analytical surface was regenerated between samples with glycine pH 1.5. Sensorgrams were obtained at each concentration and were evaluated using Biacore T100 evaluation software to determine the rate constants kₐ (kₒₙ) and kd (koff).

[9] = target: VEGFR-2 in cynomolgus monkeys (in vivo); assay: cell-based or functional assay
[10] = target: VEGFR-2 in nude mice (in vivo) (UniProt P35918 20-1345, limits assumed); assay: cell-based or functional assay
VEGFR2-Fc (R&D Systems) [11] = target: T3, VEGFR2-Fc (R&D Systems); assay: SPR (Biacore), VEGFR2-Fc immobilized directly on the chip
Description: as §1, §2
The functionality of the V2B domain was assessed by evaluating a concentration series of the midscale and large scale purification of the tandem construct 385A08-Fn-V2B (pegylated, and non-pegylated versions, his-tag and non-his-tag versions) vs. VEGFR2-Fc that was directly immobilized on a CM5 chip surface (GE, Piscataway, N.J.). VEGFR2-Fc (R&D Systems, MN) was diluted to 12 ug/mL in 50 mM Acetate pH 5.0 for an immobilization level of ˜1300 RU. Varying concentrations of 385A08-Fn-V2B in the solution phase were monitored for association (2 minutes) and dissociation (10 minutes) kinetics at a flow rate of 50 uL/min. Two 30 second injections of 50 mM glycine pH 1.7 were used to regenerate the surface.

- IC50, inhibition of proliferation of Rh41 cells (n=1) (human IGF-IR on cells): 33 nM
- IC50, inhibition of VEGF-A dependent proliferation of Ba/F3 cells [1]: 1.3 nM
B1: 385A08-Fn-V2B-Cys (designed binder)
single chain: MGVSDVPRDLEVVAATPTSLLISWSARLKVARYYRITYGETGGNSPVQEFTVPKNVYTATISGLKPGVDYTITVYAVTRFRDYQPISINYRTEIDKPSTSTSTVSDVPRDLEVVAATPTSLLISWRHPHFPTRYYRITYGETGGNSPVQEFTVPLQPPTATISGLKPGVDYTITVYAVTDGRNGRLLSIPISINYRTEIDKPCQHHHHHH

- IC50, inhibition of proliferation of Rh41 cells (n=1) (human IGF-IR on cells): > 50 nM
- IC50, inhibition of VEGF-A dependent proliferation of Ba/F3 cells [1]: 10 nM
- IC50 [2]: ~20 nM
B2: Peg-V2Bshort (designed binder)
chain: GEVVAATPTSLLISWRHPHFPTRYYRITYGETGGNSPVQEFTVPLQPPTATISGLKPGVDYTITVYAVTDGRNGRLLSIPISINYRTEIDKPCQ
modifications: pegylated at position 93 (single cysteine); the tracer form is labelled with IRDye 800CW

- koff (human IGF-IR-Fc fusion [3]): 0.000308 s⁻¹
- kon (human IGF-IR-Fc fusion [3]): 7.72e+06 M⁻¹ s⁻¹
- IC50, inhibition of proliferation of Rh41 cells (n=1) (human IGF-IR on cells): 27 nM
- IC50, inhibition of VEGF-A dependent proliferation of Ba/F3 cells [1]: 1.2 nM
- Kd (human IGF-IR-Fc fusion [4]): ~0.3 nM
- Kd (VEGFR2-Fc (R&D Systems) [5]): 0.5 nM
- Kd (human IGF-IR-Fc fusion [6]): 0.04 nM
- koff (VEGFR2-Fc (R&D Systems) [7]): 0.000193 s⁻¹
- kon (VEGFR2-Fc (R&D Systems) [7]): 414000 M⁻¹ s⁻¹
B3: 385A08-GS10 (SEQ ID NO: 22)-V2B, his-tagged (designed binder)
chain: MGVSDVPRDLEVVAATPTSLLISWSARLKVARYYRITYGETGGNSPVQEFTVPKNVYTATISGLKPGVDYTITVYAVTRFRDYQPISINYRTEIDKGSGSGSGSGSGSGSGSGSGSVSDVPRDLEVVAATPTSLLISWRHPHFPTRYYRITYGETGGNSPVQEFTVPLQPPTATISGLKPGVDYTITVYAVTDGRNGRLLSIPISINYRTEIDKPSQHHHHHH
notes: also called 385A08-GS10-V2B; 385A08-GS10-V2B (Ser tail)

- IC50, inhibition of proliferation of Rh41 cells (n=1) (human IGF-IR on cells): 6 nM
- IC50, inhibition of VEGF-A dependent proliferation of Ba/F3 cells [1]: 0.8 nM
B4: V2B-Fn-385A08-Cys (designed binder)
single chain: MGVSDVPRDLEVVAATPTSLLISWRHPHFPTRYYRITYGETGGNSPVQEFTVPLQPPTATISGLKPGVDYTITVYAVTDGRNGRLLSIPISINYRTEIDKPSTSTSTVSDVPRDLEVVAATPTSLLISWSARLKVARYYRITYGETGGNSPVQEFTVPKNVYTATISGLKPGVDYTITVYAVTRFRDYQPISINYRTEIDKPCQHHHHHH

- IC50, inhibition of VEGF-A dependent proliferation of Ba/F3 cells [1]: 2.2 nM
- Kd (human IGF-IR-Fc fusion [4]): ~0.2 nM
B5: V2B-Fn-385A08 (designed binder)
single chain: MGVSDVPRDLEVVAATPTSLLISWRHPHFPTRYYRITYGETGGNSPVQEFTVPLQPPTATISGLKPGVDYTITVYAVTDGRNGRLLSIPISINYRTEIDKPSTSTSTVSDVPRDLEVVAATPTSLLISWSARLKVARYYRITYGETGGNSPVQEFTVPKNVYTATISGLKPGVDYTITVYAVTRFRDYQPISINYRTEIDKPSQHHHHHH
notes: also called V2B-Fn-385A08 (Ser tail)

- IC50, inhibition of proliferation of Rh41 cells (n=1) (human IGF-IR on cells): 0.07 nM
B6: AT580-PEG20-AT580 (designed binder)
chain: MGVSDVPRDLEVVAATPTSLLISWSARLKVARYYRITYGETGGNSPVQEFTVPKNVYTATISGLKPGVDYTITVYAVTRFRDYQPISINYRTEIDKPCQ
modifications: the two chains are joined by a 20 kDa PEG at position 98 (cysteine) of each; labelled with IRDye 800CW in the competition assay

- IC50, inhibition of proliferation of Rh41 cells (n=1) (human IGF-IR on cells): 40 nM
- IC50, inhibition of VEGF-A dependent proliferation of Ba/F3 cells [1]: 1 nM
- Kd (human IGF-IR-Fc fusion [4]): ~0.3 nM
B7: 385A08-GS5-V2B (designed binder)
single chain: MGVSDVPRDLEVVAATPTSLLISWSARLKVARYYRITYGETGGNSPVQEFTVPKNVYTATISGLKPGVDYTITVYAVTRFRDYQPISINYRTEIDKGSGSGSGSGSVSDVPRDLEVVAATPTSLLISWRHPHFPTRYYRITYGETGGNSPVQEFTVPLQPPTATISGLKPGVDYTITVYAVTDGRNGRLLSIPISINYRTEIDKPSQHHHHHH
notes: also called 385A08-GS5-V2B (Ser tail)

- Kd (human IGF-IR-Fc fusion [8]): 0.982 nM and 1.04 nM
- koff (human IGF-IR-Fc fusion [8]): 0.00027 s⁻¹ and 0.000253 s⁻¹
- kon (human IGF-IR-Fc fusion [8]): 275000 M⁻¹ s⁻¹ and 244000 M⁻¹ s⁻¹
- plasma IC50 (grand mean), PK/PD model, monkeys [9]: 159 nM
- plasma IC50, indirect-response PD model, nude mice bearing the A673 tumor [10]: 7000 nM
- Kd (VEGFR2-Fc (R&D Systems) [11]): 17.2 nM and 5.8 nM
- koff (VEGFR2-Fc (R&D Systems) [11]): 0.000115 s⁻¹ and 7.49e-05 s⁻¹
- kon (VEGFR2-Fc (R&D Systems) [11]): 6670 M⁻¹ s⁻¹ and 13000 M⁻¹ s⁻¹
B8: pegylated, non-his-tag version of 385A08-Fn-V2B-cys (designed binder)
chain: MGVSDVPRDLEVVAATPTSLLISWSARLKVARYYRITYGETGGNSPVQEFTVPKNVYTATISGLKPGVDYTITVYAVTRFRDYQPISINYRTEIDKPSTSTSTVSDVPRDLEVVAATPTSLLISWRHPHFPTRYYRITYGETGGNSPVQEFTVPLQPPTATISGLKPGVDYTITVYAVTDGRNGRLLSIPISINYRTEIDKPCQ
modifications: PEG on the single cysteine at position 203
notes: also called 385A08-Fn-V2B-cys (pegylated, no his-tag); 385A08-Fn-V2B-Cys (non-his tagged)

- koff (human IGF-IR-Fc fusion [3]): 0.000204 s⁻¹
- kon (human IGF-IR-Fc fusion [3]): 4.18e+06 M⁻¹ s⁻¹
- IC50, inhibition of VEGF-A dependent proliferation of Ba/F3 cells [1]: 1.9 nM
- Kd (human IGF-IR-Fc fusion [4]): ~0.2 nM
- Kd (VEGFR2-Fc (R&D Systems) [5]): 0.6 nM
- Kd (human IGF-IR-Fc fusion [6]): 0.05 nM
- koff (VEGFR2-Fc (R&D Systems) [7]): 0.000222 s⁻¹
- kon (VEGFR2-Fc (R&D Systems) [7]): 382000 M⁻¹ s⁻¹
B9: V2B-GS10 (SEQ ID NO: 22)-385A08, his-tagged (designed binder)
chain: MGVSDVPRDLEVVAATPTSLLISWRHPHFPTRYYRITYGETGGNSPVQEFTVPLQPPTATISGLKPGVDYTITVYAVTDGRNGRLLSIPISINYRTEIDKGSGSGSGSGSGSGSGSGSGSVSDVPRDLEVVAATPTSLLISWSARLKVARYYRITYGETGGNSPVQEFTVPKNVYTATISGLKPGVDYTITVYAVTRFRDYQPISINYRTEIDKPSQHHHHHH
notes: also called V2B-GS10-385A08; V2B-GS10-385A08 (Ser tail)

- IC50, inhibition of VEGF-A dependent proliferation of Ba/F3 cells [1]: 2 nM
- Kd (human IGF-IR-Fc fusion [4]): ~0.2 nM
B10: V2B-GS5-385A08 (designed binder)
single chain: MGVSDVPRDLEVVAATPTSLLISWRHPHFPTRYYRITYGETGGNSPVQEFTVPLQPPTATISGLKPGVDYTITVYAVTDGRNGRLLSIPISINYRTEIDKGSGSGSGSGSVSDVPRDLEVVAATPTSLLISWSARLKVARYYRITYGETGGNSPVQEFTVPKNVYTATISGLKPGVDYTITVYAVTRFRDYQPISINYRTEIDKPSQHHHHHH
notes: also called V2B-GS5-385A08 (Ser tail)
